Reference: patent US20260116921A1, “PEPTIDE INHIBITORS OF INTERLEUKIN-23 RECEPTOR AND THEIR USE TO TREAT INFLAMMATORY DISEASES” (priority 2018, published 2026)
Numbered stars: 1 amine (or outer) side, 2 acyl side, 3 side chain; on linkers, the order of the positions; unused ones are H or OH. Bridge positions count the residues as written; N and C are the ends. Square brackets hold non-standard residues; d marks the D form. Trp(7-nPr) = CCCc1cccc2c(C[C@H](N[*:1])C(=O)[*:2])c[nH]c12; Trp(7-Me) = Cc1cccc2c(C[C@H](N)C(=O)O)c[nH]c12; 2Nal = N[C@@H](Cc1ccc2ccccc2c1)C(=O)O; AEF = NCCOc1ccc(C[C@H](N)C(=O)O)cc1; Cit = NC(=O)NCCC[C@H](N)C(=O)O; αMeL = CC(C)C[C@](C)(N)C(=O)O; Pen = CC(C)(S)[C@H](N)C(=O)O; αMeK = C[C@](N)(CCCCN)C(=O)O; Abu = CC[C@H](N)C(=O)O; Aib = CC(C)(N)C(=O)O; βAla = NCCC(=O)O

Columns and labels:
IL-23R [1] = molecular target: T1, IL-23R (human, UniProt Q5VWK5 24-629); test: cell-based or functional assay
T1 sequence (looked up): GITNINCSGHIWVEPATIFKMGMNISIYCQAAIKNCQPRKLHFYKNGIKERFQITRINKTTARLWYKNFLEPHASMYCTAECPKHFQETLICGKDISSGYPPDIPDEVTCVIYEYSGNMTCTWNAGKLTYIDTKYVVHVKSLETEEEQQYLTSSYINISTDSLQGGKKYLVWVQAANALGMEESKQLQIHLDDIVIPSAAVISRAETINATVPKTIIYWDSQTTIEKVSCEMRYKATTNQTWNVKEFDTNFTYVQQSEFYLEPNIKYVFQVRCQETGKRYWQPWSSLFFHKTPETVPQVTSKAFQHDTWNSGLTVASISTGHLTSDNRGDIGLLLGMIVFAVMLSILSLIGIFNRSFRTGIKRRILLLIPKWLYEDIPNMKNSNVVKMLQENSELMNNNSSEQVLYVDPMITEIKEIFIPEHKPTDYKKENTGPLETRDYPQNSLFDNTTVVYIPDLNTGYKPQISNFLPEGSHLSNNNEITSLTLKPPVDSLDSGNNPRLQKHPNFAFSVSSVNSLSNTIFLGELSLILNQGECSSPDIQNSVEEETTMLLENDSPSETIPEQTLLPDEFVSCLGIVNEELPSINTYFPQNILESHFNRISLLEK

IL-23R [2] = molecular target: T1, IL-23R; test: cell-based or functional assay; remark: listed apart in the source

Binder | NK Cell Assay (nM) IC50 (IL-23R [1]) [nM] | pStat3 HTRF (nM) IC50 (IL-23R [2]) [nM]
XNTXKXXXXKNV (Ac-[Pen]-NT-[W(7-Me)]-[Lys(Ac)]-[Pen]-Phe[4-(2-aminoethoxy)]-[2-Nal]-[a-MeLys]-[Lys(Ac)]-N-[(D)Val]-NH2; Pen-Pen disulfide) [SEQ ID NO: 251] | < 10 | < 1
XNTXKXXXXKNK (Ac-[Pen]-NT-[W(7-Me)]-[Lys(Ac)]-[Pen]-Phe[4-(2-aminoethoxy)]-[2-Nal]-[a-MeLys]-[Lys(Ac)]-N-[(D)Lys]-NH2; Pen-Pen disulfide) [SEQ ID NO: 252] | < 10 | < 1
XKTXQXXXXKNX (Ac-[Pen]-[Lys(Ac)]-T-[W(7-Me)]-Q-[Pen]-Phe[4-(2-aminoethoxy)]-[2-Nal]-[a-MeLys]-[Lys(Ac)]-N-[bA]-NH2; Pen-Pen disulfide) [SEQ ID NO: 239] | < 10 | –
XNTXXXXXXKNX (Ac-[Pen]-NT-[W(7-Me)]-[a-MeLys]-[Pen]-Phe[4-(2-aminoethoxy)]-[2-Nal]-[a-MeLeu]-[Lys(Ac)]-N-[bA]-NH2; Pen-Pen disulfide) [SEQ ID NO: 234] | < 10 | –
XNTXQXXXXKHX (Ac-[Pen]-NT-[W(7-Me)]-Q-[Pen]-Phe[4-(2-aminoethoxy)]-[2-Nal]-[a-MeLeu]-[Lys(Ac)]-H-[bA]-NH2; Pen-Pen disulfide) [SEQ ID NO: 214] | < 10 | –
Ac-[Pen]NT[Trp(7-Me)][Cit][Pen][AEF][2Nal][αMeL]K(Ac)N[βAla]-NH2 (disulfide 1-6) [SEQ ID NO: 227] | < 10 | < 1
XNTXKXXXXKNX (Ac-[Pen]-NT-[W(7-Me)]-[Lys(Ac)]-[Pen]-Phe[4-(2-aminoethoxy)]-[2-Nal]-[a-MeLys]-[Lys(Ac)]-N-[bA]-NH2; Pen-Pen disulfide) [SEQ ID NO: 242] | < 10 | < 1
XNTXQXXXXKXX (Ac-[Pen]-NT-[W(7-Me)]-Q-[Pen]-Phe[4-(2-aminoethoxy)]-[2-Nal]-[a-MeLeu]-[Lys(Ac)]-[bA]-[bA]-NH2; Pen-Pen disulfide) [SEQ ID NO: 226] | < 10 | –

Further lines, results first:

NK Cell Assay (nM) IC50 (IL-23R [1]) [nM] | pStat3 HTRF (nM) IC50 (IL-23R [2]) [nM] | Binder
< 10 | – | XNTXKXXXXKHX (Ac-[Pen]-N-T-[W(7-Me)]-[Lys(Ac)]-[Pen]-Phe[4-(2-aminoethoxy)]-[2-Nal]-[a-MeLys]-[Lys(Ac)]-H-[bA]-NH2; Pen-Pen disulfide) [SEQ ID NO: 272]
< 10 | < 1 | XNTXKXXXXKNF (Ac-[Pen]-NT-[W(7-Me)]-[Lys(Ac)]-[Pen]-Phe[4-(2-aminoethoxy)]-[2-Nal]-[a-MeLys]-[Lys(Ac)]-N-[(D)Phe]-NH2; Pen-Pen disulfide) [SEQ ID NO: 258]
< 10 | < 1 | XNTXQXXXXKNX (Ac-[Pen]-N-T-[W(7-Me)]-Q-[Pen]-Phe[4-(2-aminoethoxy)]-[2-Nal]-[a-MeOrn]-[Lys(Ac)]-N-[bA]-NH2; Pen-Pen disulfide) [SEQ ID NO: 278]
< 10 | – | Ac-[Pen]NT[Trp(7-Me)]K(Ac)[Pen][2Nal][2Nal][αMeK]K(Ac)N[dL]-NH2 (disulfide 1-6 (inferred)) [SEQ ID NO: 289]
< 10 | – | XNTXQXXXXENX (Ac-[Pen]-N-T-[W(7-Me)]-Q-[Pen]-Phe[4-(2-aminoethoxy)]-[2-Nal]-[a-MeLys]-E-N-[bA]-NH2; Pen-Pen disulfide) [SEQ ID NO: 282]
< 10 | – | XNTXKXXXXKSX (Ac-[Pen]-N-T-[W(7-Me)]-[Lys(Ac)]-[Pen]-Phe[4-(2-aminoethoxy)]-[2-Nal]-[a-MeLys]-[Lys(Ac)]-S-[bA]-NH2; Pen-Pen disulfide) [SEQ ID NO: 271]
< 10 | – | Ac-[dR][Abu]QT[Trp(7-Me)]K(Ac)C[AEF][2Nal][αMeK]K(Ac)N[dK]-NH2 (thioether 2-7) [SEQ ID NO: 324]
< 10 | < 1 | Ac-[Pen]NT[Trp(7-nPr)]K(Ac)[Pen][AEF][2Nal][αMeK]K(Ac)N[dL]-NH2 (disulfide 1-6 (inferred)) [SEQ ID NO: 285]
< 10 | < 1 | Ac-[Pen]NT[Trp(7-Me)][Cit][Pen][AEF][2Nal][αMeK]K(Ac)N[Aib]-NH2 (disulfide 1-6 (inferred)) [SEQ ID NO: 264]
